B1: 抗神经特异性烯醇化酶的单克隆抗体4C11 (hybridoma-derived) (antibody, V domains shown)
VH: EVKLVESGGGLVQPGGSLRLSCATSGFTFTDYYMSWVRQPPGKALEWLGFIRNKANGYTTEYSASVKGRFTISRDNSQSILYLQMNTLRAEDSATYYCARDGDGSARWGQGTLVTVSA
VL: DIQMTQTTSSLSASLGDRVTISCRASQDISNYLNWYQQKPDGTVKLLIYYTSRLHSGVPSRFSGSGSGTDYSLTISNLEQEDIATYFCQQGNTLPYTFGGGTRLEIR
notes: Mouse hybridoma antibody; It was tested as hybridoma supernatant or ascites; also called 4C11单克隆抗体
B2: 重组4C11抗体重链4C11mG1 (transfected alone) (other)
heavy: B1 VH
notes: Heavy chain only, with no light chain; tested as 293T culture supernatant; not shown: mouse IgG1 heavy-chain constant region supplied by vector pFUSE-CHIg-mG1 (invivogen)
B3: 重组4C11抗体轻链4C11mk (transfected alone) (other)
light: DIQMTQTTSSLSASLGDRVTISCRASQDISNYLNWYQQKPDGTVKLLIYYTSRLHSGVPSRFSGSGSGTDYSLTISNLEQEDIATYFCQQGNTLPYTFGGGTRLEIRRADAAPTVSIFPPSSEQLTSGGASVVCFLNNFYPKDINVKWKIDGSERQNGVLNSWTDQDSKDSTYSMSSTLTLTKDEYERHNSYTCEATHKTSTSPIVKSFNRNEC
notes: Light chain only, with no heavy chain; tested as 293T culture supernatant

Key:
[1] = target: T1, ENO2flag (ENO2 with C-terminal flag tag, pcDNA3.1, expressed in 293T cells) (human, UniProt P09104 2-434, limits assumed); experiment: Western blot, lysate of 293T cells transfected with ENO2flag-pcDNA3.1, hybridoma supernatant
T1 construct: Tested as a lysate of transfected 293T cells (Western blot) and in acetone-fixed transfected 293T cells (immunofluorescence); also called ENO2flag-pcDNA3.1; ENO2抗原; not shown: C-terminal flag tag
T1 sequence (P09104 2-434 limits assumed): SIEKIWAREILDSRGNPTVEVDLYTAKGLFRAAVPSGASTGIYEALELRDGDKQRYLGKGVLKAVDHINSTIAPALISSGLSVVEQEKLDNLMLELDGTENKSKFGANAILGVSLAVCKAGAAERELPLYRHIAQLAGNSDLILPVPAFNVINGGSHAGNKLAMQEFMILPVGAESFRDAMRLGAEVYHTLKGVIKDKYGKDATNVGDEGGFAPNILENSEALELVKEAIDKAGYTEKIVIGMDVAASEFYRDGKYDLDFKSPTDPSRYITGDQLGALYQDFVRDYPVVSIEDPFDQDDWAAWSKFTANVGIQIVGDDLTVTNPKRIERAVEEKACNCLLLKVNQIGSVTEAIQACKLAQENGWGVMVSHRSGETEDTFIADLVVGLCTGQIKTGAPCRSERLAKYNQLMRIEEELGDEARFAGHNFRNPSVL

[2] = target: T2, ENO2-GST (human ENO2 expressed from pGEX 4t-1, GST-column purified) (human, UniProt P09104 1-434); experiment: ELISA screening of hybridoma supernatants on ENO2-GST coated plates
T2 construct: Expressed in E. coli BL21(DE3) and used to coat ELISA plates at 100 ng/well; also called pGEX 4t-1载体表达的ENO2; ENO2-4t-1; not shown: GST tag supplied by vector pGEX 4t-1
T2 sequence (P09104 whole entry): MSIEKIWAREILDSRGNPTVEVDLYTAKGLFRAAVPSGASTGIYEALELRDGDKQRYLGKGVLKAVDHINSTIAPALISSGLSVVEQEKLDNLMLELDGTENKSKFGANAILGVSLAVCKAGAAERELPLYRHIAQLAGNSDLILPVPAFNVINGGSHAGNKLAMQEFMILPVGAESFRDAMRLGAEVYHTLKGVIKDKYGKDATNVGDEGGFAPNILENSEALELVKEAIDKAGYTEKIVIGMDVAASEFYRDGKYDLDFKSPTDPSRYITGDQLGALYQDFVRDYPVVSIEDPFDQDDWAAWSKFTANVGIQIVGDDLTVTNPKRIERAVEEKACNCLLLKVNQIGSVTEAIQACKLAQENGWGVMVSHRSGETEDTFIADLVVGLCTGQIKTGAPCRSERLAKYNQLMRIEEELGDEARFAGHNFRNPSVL

[3] = target: T3, 纯化的ENO2蛋白 (coating protein of the Example 7 ELISA) (human, UniProt P09104 1-434); experiment: ELISA, ENO2-coated plate (100 ng/well), 293T supernatant, HRP anti-IgG / anti-kappa secondary
T3 construct: also called 抗原ENO2
T3 sequence (P09104 whole entry): as above

binding result [1]	binding result [2]	binding result [3]	Binder
binds	binds	–	B1
–	–	no binding	B2
–	–	no binding	B3

Reference: CN114426582A (SHAANXI PULSE ELEMENT BIOTECHNOLOGY LTD COMPANY, dated 2022)
